In experiment [1] the target is FcRII (Fc gamma receptor II on K562 cells) (UniProt P12318). The experiment can be described thus: cell-based or functional assay.
Experiment [2] addresses ヒトCD3抗原 (human CD3 antigen on the surface of human T cells) (human) (UniProt P07766). The experiment in a line: competition with 125I-labelled mouse M291 on IL-2-activated human T cells; affinity by the method of Berzofsky and Berkower.

The record followed here is patent JP2002506420A.

Where only a bound is given, the exact number is not on record here.

Chain of UniProt P12318 (P12318 34-317): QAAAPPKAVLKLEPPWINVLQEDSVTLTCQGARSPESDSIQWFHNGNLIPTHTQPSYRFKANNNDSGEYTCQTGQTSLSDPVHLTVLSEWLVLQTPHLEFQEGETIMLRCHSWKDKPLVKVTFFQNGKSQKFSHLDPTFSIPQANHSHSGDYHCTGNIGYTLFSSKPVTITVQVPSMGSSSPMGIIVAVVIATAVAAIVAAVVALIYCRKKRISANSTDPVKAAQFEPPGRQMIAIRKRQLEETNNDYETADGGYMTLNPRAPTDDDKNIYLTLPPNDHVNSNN
Chain of UniProt P07766 (P07766 23-207): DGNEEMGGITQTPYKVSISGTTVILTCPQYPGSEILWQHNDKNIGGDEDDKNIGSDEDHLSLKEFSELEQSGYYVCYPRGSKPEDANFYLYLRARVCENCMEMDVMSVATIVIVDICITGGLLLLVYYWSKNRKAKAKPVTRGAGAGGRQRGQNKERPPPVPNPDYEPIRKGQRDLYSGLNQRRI

In the case of “キメラOKT3 IgG2 (chimeric OKT3, wild-type human IgG2) (from UniProt P01859 1-326) (antibody)”, the K562細胞の特異的溶解 (reverse lysis, 51Cr release) in experiment [1] was < 32%.

Turning to “ヒト化M291 IgG1 (humanized M291, human IgG1) (from UniProt P01857 1-330) (antibody)”, the Ka in experiment [2] came to 1.6e+09 M⁻¹.
